The target in assay [1] is T1, BRD4 (human, UniProt O60885 1-1362).
T1 construct: One entry covers endogenous, Flag-tagged and HA-tagged full-length BRD4; also called FLAG-BRD4; Flag-BRD4
Nature of the assay: co-IP from 293T cells transfected with Flag-tagged USPs and HA-BRD4. On the procedure: (§1) To immunoprecipitate the ectopically expressed FLAG-tagged proteins, transfected cells were lysed 24 hours post-transfection in BC100 buffer. The whole-cell lysates were immunoprecipitated with the monoclonal anti-FLAG antibody-conjugated M2 agarose beads (Sigma-Aldrich) at 4° C. overnight. After three washes with lysis buffer, followed by two washes with BC100 buffer, the bound proteins were eluted using FLAG-Peptide (Sigma-Aldrich) prepared in BC100 for 3 hours at 4° C. The eluted protein sample was resolved by SDS-PAGE. To immunoprecipitate the endogenous proteins, cells were lysed with 1× cell lysis buffer (Cell Signaling Technology), and the lysate was centrifuged. The supernatant was precleared with protein A/G beads (Sigma-Aldrich) and incubated with the indicated antibody and protein A/G beads at 4° C. overnight. Beads were washed five times with lysis buffer and resuspended in sample buffer and analyzed by SDS-PAGE.

Assay [2] deals with NCOR2 (human, UniProt Q9Y618 1-2514, limits assumed). The experiment in a line: reciprocal co-IP of endogenous proteins in C4-2 cells. On the procedure:
as §1

In assay [3] the target is T1, BRD4. Nature of the assay: GST pull-down of Flag-BRD4 from PC-3 cells.
Assay [4] deals with T1, BRD4. The experiment in a line: co-IP from 293T cells transfected with Flag-tagged USPs (DUB3 and other DUBs) and HA-BRD4. On the procedure: as §1
For assay [5], the target named is T2, BRD3 (human, UniProt Q15059 1-726).
T2 construct: One entry covers endogenous and FLAG-tagged full-length BRD3; also called FLAG-BRD3; Flag-BRD3
T2 sequence (Q15059 whole entry): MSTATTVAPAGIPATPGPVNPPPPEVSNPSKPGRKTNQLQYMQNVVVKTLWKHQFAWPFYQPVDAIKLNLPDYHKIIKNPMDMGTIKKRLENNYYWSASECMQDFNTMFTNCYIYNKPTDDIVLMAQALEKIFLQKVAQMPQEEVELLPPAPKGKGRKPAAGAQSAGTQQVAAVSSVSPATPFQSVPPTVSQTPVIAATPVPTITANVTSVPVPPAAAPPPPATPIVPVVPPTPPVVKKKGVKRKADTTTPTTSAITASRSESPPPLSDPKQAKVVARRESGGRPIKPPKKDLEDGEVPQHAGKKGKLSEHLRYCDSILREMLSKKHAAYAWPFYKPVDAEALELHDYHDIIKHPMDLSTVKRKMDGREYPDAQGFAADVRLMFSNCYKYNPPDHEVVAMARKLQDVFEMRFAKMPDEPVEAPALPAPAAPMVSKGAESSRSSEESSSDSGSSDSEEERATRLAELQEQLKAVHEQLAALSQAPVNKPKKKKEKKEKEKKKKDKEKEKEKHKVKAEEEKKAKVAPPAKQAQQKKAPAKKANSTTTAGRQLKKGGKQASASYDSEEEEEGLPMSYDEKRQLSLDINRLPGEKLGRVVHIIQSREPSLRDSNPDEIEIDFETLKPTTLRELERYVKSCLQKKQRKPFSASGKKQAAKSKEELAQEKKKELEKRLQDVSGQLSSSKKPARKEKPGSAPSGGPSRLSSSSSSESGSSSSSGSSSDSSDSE
Nature of the assay: co-IP of endogenous proteins in PC-3 cells. On the procedure:
as §1

Assay [6] concerns the target T3, BRD2 (human, UniProt P25440 1-801).
T3 construct: One entry covers endogenous and FLAG-tagged full-length BRD2; also called FLAG-BRD2; Flag-BRD2
The experiment in a line: co-IP of endogenous proteins in PC-3 cells. The method, then:
as §1

Consider 7 molecules from patent US20220016130A1 (MAYO FOUNDATION FOR MEDICAL EDUCATION AND RESEARCH, published 2022).

Chain of NCOR2 (Q9Y618 whole entry): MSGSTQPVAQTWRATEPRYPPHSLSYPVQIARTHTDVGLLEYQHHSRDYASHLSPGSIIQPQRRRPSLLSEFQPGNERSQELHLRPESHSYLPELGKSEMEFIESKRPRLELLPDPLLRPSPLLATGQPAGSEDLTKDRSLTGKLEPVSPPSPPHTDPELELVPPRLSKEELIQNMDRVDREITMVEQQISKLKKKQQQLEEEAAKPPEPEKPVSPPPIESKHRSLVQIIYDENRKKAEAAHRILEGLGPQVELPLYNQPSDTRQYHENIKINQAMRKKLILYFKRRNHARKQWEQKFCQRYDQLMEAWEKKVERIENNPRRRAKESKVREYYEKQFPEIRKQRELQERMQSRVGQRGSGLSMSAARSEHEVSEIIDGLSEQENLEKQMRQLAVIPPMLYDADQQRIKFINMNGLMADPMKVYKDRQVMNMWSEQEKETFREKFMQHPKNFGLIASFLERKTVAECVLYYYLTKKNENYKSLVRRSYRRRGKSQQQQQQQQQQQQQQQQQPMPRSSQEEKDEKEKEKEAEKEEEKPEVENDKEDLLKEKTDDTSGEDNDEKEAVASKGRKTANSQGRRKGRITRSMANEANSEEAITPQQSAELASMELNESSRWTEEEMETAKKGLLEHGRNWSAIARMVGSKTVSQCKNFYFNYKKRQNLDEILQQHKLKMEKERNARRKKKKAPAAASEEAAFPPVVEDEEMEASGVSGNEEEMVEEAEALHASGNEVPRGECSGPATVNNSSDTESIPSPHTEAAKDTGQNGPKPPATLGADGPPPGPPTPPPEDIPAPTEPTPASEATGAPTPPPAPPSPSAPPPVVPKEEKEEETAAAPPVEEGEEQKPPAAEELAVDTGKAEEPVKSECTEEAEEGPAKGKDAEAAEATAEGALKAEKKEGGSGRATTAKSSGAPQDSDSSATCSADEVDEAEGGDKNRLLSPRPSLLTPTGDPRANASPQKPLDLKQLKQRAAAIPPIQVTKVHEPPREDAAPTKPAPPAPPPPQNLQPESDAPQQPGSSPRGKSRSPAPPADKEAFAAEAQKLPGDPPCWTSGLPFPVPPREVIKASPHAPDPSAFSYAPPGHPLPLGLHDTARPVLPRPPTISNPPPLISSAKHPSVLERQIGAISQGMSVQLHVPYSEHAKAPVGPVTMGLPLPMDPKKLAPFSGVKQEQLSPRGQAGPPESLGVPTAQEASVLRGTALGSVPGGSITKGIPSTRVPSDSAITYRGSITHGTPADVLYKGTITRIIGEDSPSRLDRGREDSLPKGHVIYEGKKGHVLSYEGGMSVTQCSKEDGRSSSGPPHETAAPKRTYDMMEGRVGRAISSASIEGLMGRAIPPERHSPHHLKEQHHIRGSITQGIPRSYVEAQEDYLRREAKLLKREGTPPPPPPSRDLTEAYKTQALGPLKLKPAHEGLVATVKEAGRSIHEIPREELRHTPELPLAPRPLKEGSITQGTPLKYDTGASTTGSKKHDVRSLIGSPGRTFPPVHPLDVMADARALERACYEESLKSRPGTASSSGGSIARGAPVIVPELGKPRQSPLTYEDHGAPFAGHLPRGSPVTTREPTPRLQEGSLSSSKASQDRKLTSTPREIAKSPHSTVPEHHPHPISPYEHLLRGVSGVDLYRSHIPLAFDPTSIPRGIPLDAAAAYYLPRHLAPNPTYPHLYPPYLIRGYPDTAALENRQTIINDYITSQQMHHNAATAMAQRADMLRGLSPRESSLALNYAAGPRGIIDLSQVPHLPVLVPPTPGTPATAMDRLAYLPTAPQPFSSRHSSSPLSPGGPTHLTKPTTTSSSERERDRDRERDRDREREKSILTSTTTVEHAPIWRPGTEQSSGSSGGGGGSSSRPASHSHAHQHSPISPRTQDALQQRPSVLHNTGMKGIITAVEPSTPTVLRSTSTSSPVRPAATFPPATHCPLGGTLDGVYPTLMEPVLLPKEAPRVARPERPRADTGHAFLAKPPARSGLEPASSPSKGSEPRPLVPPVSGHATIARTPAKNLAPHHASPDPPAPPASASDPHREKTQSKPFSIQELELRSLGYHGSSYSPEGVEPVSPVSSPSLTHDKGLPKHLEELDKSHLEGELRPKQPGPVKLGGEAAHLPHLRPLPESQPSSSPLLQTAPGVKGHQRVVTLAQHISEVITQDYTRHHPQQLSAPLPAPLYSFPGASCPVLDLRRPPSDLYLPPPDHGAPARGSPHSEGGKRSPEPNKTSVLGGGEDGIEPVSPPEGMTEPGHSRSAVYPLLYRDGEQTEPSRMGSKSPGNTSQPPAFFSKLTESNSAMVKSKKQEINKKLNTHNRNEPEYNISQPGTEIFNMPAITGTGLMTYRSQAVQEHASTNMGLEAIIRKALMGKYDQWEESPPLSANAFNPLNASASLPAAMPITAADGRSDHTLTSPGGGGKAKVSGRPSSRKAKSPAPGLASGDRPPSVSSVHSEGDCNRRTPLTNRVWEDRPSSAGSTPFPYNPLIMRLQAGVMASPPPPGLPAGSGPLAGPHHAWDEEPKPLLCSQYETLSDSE
T3 sequence (P25440 whole entry): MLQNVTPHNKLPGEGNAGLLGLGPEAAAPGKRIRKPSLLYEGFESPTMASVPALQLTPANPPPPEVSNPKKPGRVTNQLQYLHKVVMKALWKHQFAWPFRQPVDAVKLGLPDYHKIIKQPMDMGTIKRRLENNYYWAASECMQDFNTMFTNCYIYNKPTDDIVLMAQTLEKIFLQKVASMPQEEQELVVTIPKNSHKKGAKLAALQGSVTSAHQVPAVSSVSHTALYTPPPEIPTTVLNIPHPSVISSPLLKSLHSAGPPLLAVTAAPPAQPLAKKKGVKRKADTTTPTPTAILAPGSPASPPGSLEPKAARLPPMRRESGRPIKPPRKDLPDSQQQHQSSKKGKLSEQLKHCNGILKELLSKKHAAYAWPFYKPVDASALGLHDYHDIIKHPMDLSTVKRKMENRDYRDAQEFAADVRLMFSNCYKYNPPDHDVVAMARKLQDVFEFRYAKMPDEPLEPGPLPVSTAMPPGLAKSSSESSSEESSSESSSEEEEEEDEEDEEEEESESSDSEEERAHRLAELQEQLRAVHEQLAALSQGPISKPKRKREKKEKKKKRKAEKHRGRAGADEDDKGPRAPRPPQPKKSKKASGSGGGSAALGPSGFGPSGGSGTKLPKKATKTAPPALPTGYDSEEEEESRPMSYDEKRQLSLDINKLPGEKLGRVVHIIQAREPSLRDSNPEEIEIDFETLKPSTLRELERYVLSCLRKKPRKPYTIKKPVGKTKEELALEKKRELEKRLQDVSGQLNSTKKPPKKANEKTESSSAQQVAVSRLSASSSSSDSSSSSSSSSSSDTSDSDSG

B1: Flag-USP13 (enzyme, UniProt Q92995 1-863, looked up)
chain: MQRRGALFGMPGGSGGRKMAAGDIGELLVPHMPTIRVPRSGDRVYKNECAFSYDSPNSEGGLYVCMNTFLAFGREHVERHFRKTGQSVYMHLKRHVREKVRGASGGALPKRRNSKIFLDLDTDDDLNSDDYEYEDEAKLVIFPDHYEIALPNIEELPALVTIACDAVLSSKSPYRKQDPDTWENELPVSKYANNLTQLDNGVRIPPSGWKCARCDLRENLWLNLTDGSVLCGKWFFDSSGGNGHALEHYRDMGYPLAVKLGTITPDGADVYSFQEEEPVLDPHLAKHLAHFGIDMLHMHGTENGLQDNDIKLRVSEWEVIQESGTKLKPMYGPGYTGLKNLGNSCYLSSVMQAIFSIPEFQRAYVGNLPRIFDYSPLDPTQDFNTQMTKLGHGLLSGQYSKPPVKSELIEQVMKEEHKPQQNGISPRMFKAFVSKSHPEFSSNRQQDAQEFFLHLVNLVERNRIGSENPSDVFRFLVEERIQCCQTRKVRYTERVDYLMQLPVAMEAATNKDELIAYELTRREAEANRRPLPELVRAKIPFSACLQAFSEPENVDDFWSSALQAKSAGVKTSRFASFPEYLVVQIKKFTFGLDWVPKKFDVSIDMPDLLDINHLRARGLQPGEEELPDISPPIVIPDDSKDRLMNQLIDPSDIDESSVMQLAEMGFPLEACRKAVYFTGNMGAEVAFNWIIVHMEEPDFAEPLTMPGYGGAASAGASVFGASGLDNQPPEEIVAIITSMGFQRNQAIQALRATNNNLERALDWIFSHPEFEEDSDFVIEMENNANANIISEAKPEGPRVKDGSGTYELFAFISHMGTSTMSGHYICHIKKEGRWVIYNDHKVCASERPPKDLGYMYFYRRIPS
notes: not shown: Flag tag
With B1, the binding result in assay [1] is reported as “no binding”.

B2: HDAC10 (enzyme, human, UniProt Q969S8 1-669, looked up)
chain: MGTALVYHEDMTATRLLWDDPECEIERPERLTAALDRLRQRGLEQRCLRLSAREASEEELGLVHSPEYVSLVRETQVLGKEELQALSGQFDAIYFHPSTFHCARLAAGAGLQLVDAVLTGAVQNGLALVRPPGHHGQRAAANGFCVFNNVAIAAAHAKQKHGLHRILVVDWDVHHGQGIQYLFEDDPSVLYFSWHRYEHGRFWPFLRESDADAVGRGQGLGFTVNLPWNQVGMGNADYVAAFLHLLLPLAFEFDPELVLVSAGFDSAIGDPEGQMQATPECFAHLTQLLQVLAGGRVCAVLEGGYHLESLAESVCMTVQTLLGDPAPPLSGPMAPCQSALESIQSARAAQAPHWKSLQQQDVTAVPMSPSSHSPEGRPPPLLPGGPVCKAAASAPSSLLDQPCLCPAPSVRTAVALTTPDITLVLPPDVIQQEASALREETEAWARPHESLAREEALTALGKLLYLLDGMLDGQVNSGIAATPASAAAATLDVAVRRGLSHGAQRLLCVALGQLDRPPDLAHDGRSLWLNIRGKEAAALSMFHVSTPLPVMTGGFLSCILGLVLPLAYGFQPDLVLVALGPGHGLQGPHAALLAAMLRGLAGGRVLALLEENSTPQLAGILARVLNGEAPPSLGPSSVASPEDVQALMYLRGQLEPQWKMLQCHPHLVA
In the case of B2, in assay [2], the binding result is listed as “binds”.

B3: Flag-USP49 (enzyme, UniProt Q70CQ1 1-688, looked up)
chain: MDRCKHVGRLRLAQDHSILNPQKWCCLECATTESVWACLKCSHVACGRYIEDHALKHFEETGHPLAMEVRDLYVFCYLCKDYVLNDNPEGDLKLLRSSLLAVRGQKQDTPVRRGRTLRSMASGEDVVLPQRAPQGQPQMLTALWYRRQRLLARTLRLWFEKSSRGQAKLEQRRQEEALERKKEEARRRRREVKRRLLEELASTPPRKSARLLLHTPRDAGPAASRPAALPTSRRVPAATLKLRRQPAMAPGVTGLRNLGNTCYMNSILQVLSHLQKFRECFLNLDPSKTEHLFPKATNGKTQLSGKPTNSSATELSLRNDRAEACEREGFCWNGRASISRSLELIQNKEPSSKHISLCRELHTLFRVMWSGKWALVSPFAMLHSVWSLIPAFRGYDQQDAQEFLCELLHKVQQELESEGTTRRILIPFSQRKLTKQVLKVVNTIFHGQLLSQVTCISCNYKSNTIEPFWDLSLEFPERYHCIEKGFVPLNQTECLLTEMLAKFTETEALEGRIYACDQCNSKRRKSNPKPLVLSEARKQLMIYRLPQVLRLHLKRFRWSGRNHREKIGVHVVFDQVLTMEPYCCRDMLSSLDKETFAYDLSAVVMHHGKGFGSGHYTAYCYNTEGGFWVHCNDSKLNVCSVEEVCKTQAYILFYTQRTVQGNARISETHLQAQVQSSNNDEGRPQTFS
notes: not shown: Flag tag
As to B3, the binding result in assay [1] is reported as “no binding”.

B4: GST-DUB3 C-terminal fragment (other, UniProt Q6R6M4 399-530, looked up)
chain: TDRRATQGELKRDHPCLQAPELDERLVERATQESTLDHWKFPQEQNKTKPEFNVRKVEGTLPPNVLVIHQSKYKCGMKNHHPEQQSSLLNLSSTTRTDQESVNTGTLASLQGRTRRSKGKNKHSKRALLVCQ
notes: also called C-terminal fragment of DUB3; not shown: glutathione S-transferase (GST) tag
In the case of B4, in assay [3], the binding result was “no binding”.

B5: DUB3 (enzyme, human, UniProt Q6R6M4 1-530, looked up)
chain: MEDDSLYLGGEWQFNHFSKLTSSRPDAAFAEIQRTSLPEKSPLSSEARVDLCDDLAPVARQLAPRKKLPLSSRRPAAVGAGLQNMGNTCYENASLQCLTYTPPLANYMLSREHSQTCQRPKCCMLCTMQAHITWALHSPGHVIQPSQALAAGFHRGKQEDAHEFLMFTVDAMKKACLPGHKQVDHHSKDTTLIHQIFGGCWRSQIKCLHCHGISDTFDPYLDIALDIQAAQSVKQALEQLVKPEELNGENAYHCGLCLQRAPASKTLTLHTSAKVLILVLKRFSDVTGNKLAKNVQYPECLDMQPYMSQQNTGPLVYVLYAVLVHAGWSCHDGHYFSYVKAQEGQWYKMDDAKVTACSITSVLSQQAYVLFYIQKSEWERHSESVSRGREPRALGAEDTDRRATQGELKRDHPCLQAPELDERLVERATQESTLDHWKFPQEQNKTKPEFNVRKVEGTLPPNVLVIHQSKYKCGMKNHHPEQQSSLLNLSSTTRTDQESVNTGTLASLQGRTRRSKGKNKHSKRALLVCQ
notes: One entry covers endogenous, HA-tagged and Flag-tagged full-length DUB3; also called USP17L2; USP17
In the case of B5, the binding result is “binds” in assay [4], “no binding” in assay [5] and “no binding” in assay [6].

B6: Flag-USP15 (enzyme, UniProt Q9Y4E8 1-981, looked up)
chain: MAEGGAADLDTQRSDIATLLKTSLRKGDTWYLVDSRWFKQWKKYVGFDSWDKYQMGDQNVYPGPIDNSGLLKDGDAQSLKEHLIDELDYILLPTEGWNKLVSWYTLMEGQEPIARKVVEQGMFVKHCKVEVYLTELKLCENGNMNNVVTRRFSKADTIDTIEKEIRKIFSIPDEKETRLWNKYMSNTFEPLNKPDSTIQDAGLYQGQVLVIEQKNEDGTWPRGPSTPKSPGASNFSTLPKISPSSLSNNYNNMNNRNVKNSNYCLPSYTAYKNYDYSEPGRNNEQPGLCGLSNLGNTCFMNSAIQCLSNTPPLTEYFLNDKYQEELNFDNPLGMRGEIAKSYAELIKQMWSGKFSYVTPRAFKTQVGRFAPQFSGYQQQDCQELLAFLLDGLHEDLNRIRKKPYIQLKDADGRPDKVVAEEAWENHLKRNDSIIVDIFHGLFKSTLVCPECAKISVTFDPFCYLTLPLPMKKERTLEVYLVRMDPLTKPMQYKVVVPKIGNILDLCTALSALSGIPADKMIVTDIYNHRFHRIFAMDENLSSIMERDDIYVFEININRTEDTEHVIIPVCLREKFRHSSYTHHTGSSLFGQPFLMAVPRNNTEDKLYNLLLLRMCRYVKISTETEETEGSLHCCKDQNINGNGPNGIHEEGSPSEMETDEPDDESSQDQELPSENENSQSEDSVGGDNDSENGLCTEDTCKGQLTGHKKRLFTFQFNNLGNTDINYIKDDTRHIRFDDRQLRLDERSFLALDWDPDLKKRYFDENAAEDFEKHESVEYKPPKKPFVKLKDCIELFTTKEKLGAEDPWYCPNCKEHQQATKKLDLWSLPPVLVVHLKRFSYSRYMRDKLDTLVDFPINDLDMSEFLINPNAGPCRYNLIAVSNHYGGMGGGHYTAFAKNKDDGKWYYFDDSSVSTASEDQIVSKAAYVLFYQRQDTFSGTGFFPLDRETKGASAATGIPLESDEDSNDNDNDIENENCMHTN
notes: not shown: Flag tag
Regarding B6, the binding result in assay [1] is “no binding”.

B7: Flag-USP28 (enzyme, UniProt Q96RU2 1-1077, looked up)
chain: MTAELQQDDAAGAADGHGSSCQMLLNQLREITGIQDPSFLHEALKASNGDITQAVSLLTDERVKEPSQDTVATEPSEVEGSAANKEVLAKVIDLTHDNKDDLQAAIALSLLESPKIQADGRDLNRMHEATSAETKRSKRKRCEVWGENPNPNDWRRVDGWPVGLKNVGNTCWFSAVIQSLFQLPEFRRLVLSYSLPQNVLENCRSHTEKRNIMFMQELQYLFALMMGSNRKFVDPSAALDLLKGAFRSSEEQQQDVSEFTHKLLDWLEDAFQLAVNVNSPRNKSENPMVQLFYGTFLTEGVREGKPFCNNETFGQYPLQVNGYRNLDECLEGAMVEGDVELLPSDHSVKYGQERWFTKLPPVLTFELSRFEFNQSLGQPEKIHNKLEFPQIIYMDRYMYRSKELIRNKRECIRKLKEEIKILQQKLERYVKYGSGPARFPLPDMLKYVIEFASTKPASESCPPESDTHMTLPLSSVHCSVSDQTSKESTSTESSSQDVESTFSSPEDSLPKSKPLTSSRSSMEMPSQPAPRTVTDEEINFVKTCLQRWRSEIEQDIQDLKTCIASTTQTIEQMYCDPLLRQVPYRLHAVLVHEGQANAGHYWAYIYNQPRQSWLKYNDISVTESSWEEVERDSYGGLRNVSAYCLMYINDKLPYFNAEAAPTESDQMSEVEALSVELKHYIQEDNWRFEQEVEEWEEEQSCKIPQMESSTNSSSQDYSTSQEPSVASSHGVRCLSSEHAVIVKEQTAQAIANTARAYEKSGVEAALSEVMLSPAMQGVILAIAKARQTFDRDGSEAGLIKAFHEEYSRLYQLAKETPTSHSDPRLQHVLVYFFQNEAPKRVVERTLLEQFADKNLSYDERSISIMKVAQAKLKEIGPDDMNMEEYKKWHEDYSLFRKVSVYLLTGLELYQKGKYQEALSYLVYAYQSNAALLMKGPRRGVKESVIALYRRKCLLELNAKAASLFETNDDHSVTEGINVMNELIIPCIHLIINNDISKDDLDAIEVMRNHWCSYLGQDIAENLQLCLGEFLPRLLDPSAEIIVLKEPPTIRPNSPYDLCSRFAAVMESIQGVSTVTVK
notes: not shown: Flag tag
For the molecule B7, the binding result in assay [1] is listed as “no binding”.
